Experimental data taken from paper PMC5900715 (Genes & Development, 2018).
Ends that are not written are not given here.

Molecular target: MDM2 NTD polypeptide (residues 10–139) (UniProt Q00987 10-139)
Assay: fluorescence polarisation

Binder | binding result
fluorescein-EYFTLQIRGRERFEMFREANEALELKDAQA (also: dimeric) [dimeric mutant p53 OD peptide (L344A, residues 326–355)] | binds
fluorescein-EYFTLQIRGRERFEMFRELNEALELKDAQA [wild-type p53 OD peptide (residues 326–355)] | binds
